Reference: article PMC11358308, “Structure-based humanization of a therapeutic antibody for multiple myeloma” (Journal of Molecular Medicine (Berlin, Germany), 2024)
Changes are numbered by the printed parent chain. In names and notes the source's numbering stands. Each block holds one binder with its values, some of them ahead of it.

Experiments:
Conditions in all cases: both partners purified
[1] = biological target: T1, human B-cell maturation antigen (BCMA), extracellular domain (Homo sapiens (Human)., UniProt Q02223); experiment: SPR; ProteOn XPR36; whole IgG (15 µg/ml) immobilised on GLH chip by amine chemistry; BCMA as mobile phase in PBS with 0.005% Tween-20 (0.4-90 nM hBCMA, 2.7 nM-1 µM cBCMA); Kd from kon and koff, single-site model
T1 construct: B-cell maturation antigen (BCMA), human; soluble form used as mobile phase in SPR and in the Fab:BCMA crystals; holds the DxL loop (L17) and H19; also called hBCMA; human BCMA
T1 sequence (Q02223 1-54): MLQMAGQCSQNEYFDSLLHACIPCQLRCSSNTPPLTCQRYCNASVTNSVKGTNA

[2] = biological target: T2, cynomolgus BCMA (Macaca fascicularis, UniProt A0A2K5UD97); experiment: as above
T2 construct: B-cell maturation antigen (BCMA), cynomolgus monkey (macaque); differs from human BCMA at three positions: alanine 20 is aspartic acid, isoleucine 22 is lysine, asparagine 31 of hBCMA is deleted; also called cynoBCMA; cBCMA

[3] = biological target: T1, human B-cell maturation antigen (BCMA), …; experiment: crystal structure; Fab:BCMA complexes; 21% PEG 3350, 0.1 M BisTris pH 6.5, 5 mM CuCl2, 20 °C; molecular replacement

binding result [1]: binds
binding result [2]: binds
B3: J22.9-ISY, humanized and CDR-optimized IgG (antibody, V domains shown)
VH: EVQLVESGGGLVQPGGSLRLSCAASGFTFSRYWISWVRQAPGKGLVWVGEINPSSSTINYAPSLKDKFTISRDNAKNTLYLQMNSLRAEDTAVYYCASLYYDYGDAYDYWGQGTLVTVSS
VL: EIVMTQSPATLSVSPGERATLSCKASQSVESNVAWYQQKPGQAPRALIYSASLRFSGIPARFSGSGSGTEFTLTISSLQSEDFAVYYCQQYNNYPLTFGAGTKLELK
notes: as the VH of m5 (J22.9-H; human IgG1 heavy chain constant region, as told for J22.9-xi; source: expressed, purified)

binding result [1]: binds
binding result [2]: binds
B4: J22.9-FSY, humanized and CDR-optimized IgG (antibody, V domains shown)
VH: B3 VH with I34F
VL: B3 VL
notes: as the VH of m5 (J22.9-H); human IgG1 heavy chain constant region, as told for J22.9-xi; as the light chain of m5 (J22.9-H; no structure of this variant; source: expressed, purified)

Continued, binder first:

B1: J22.9-H, humanized IgG (all humanizing substitutions in VH and VL except A46L in VL) (antibody, V domains shown)
VH: B3 VH with I34M, S54D, Y107M
VL: B3 VL with E30D
notes: humanized VH (hVH, 16 changes against the mouse VH); human IgG1 heavy chain constant region, as told for J22.9-xi; Fab light chain in PDB 8QY9; whole IgG in SPR and FACS; source: expressed, purified
Kd [1]: 15 nM
binding result [2]: binds

B2: J22.9-ISY Fab fragment (Fab, V domains shown)
VH: B3 VH
VL: B3 VL
notes: Fab heavy chain; as the light chain of m7 (light chain of J22.9-H with D30E); Crystallised in complex with BCMA
binding result [3]: binds

B5: J22.9-xi, chimaeric mouse/human IgG (antibody, V domains shown)
VH: QVQLQQSGGGLVQPGGSLKLSCAASGIDFSRYWMSWVRRAPGKGLEWIGEINPDSSTINYAPSLKDKFIISRDNAKNTLYLQMSKVRSEDTALYYCASLYYDYGDAMDYWGQGTSVTVSS
VL: DIVMTQSQRFMTTSVGDRVSVTCKASQSVDSNVAWYQQKPRQSPKALIFSASLRFSGVPARFTGSGSGTDFTLTISNLQSEDLAEYFCQQYNNYPLTFGAGTKLELK
notes: mouse VH of J22.9 (mVH); mouse VL of J22.9 (mVL); Fab light chain in PDB 4ZFO; IgG1; whole IgG immobilised in SPR
Kd [1]: 0.28 nM
binding result [2]: binds
